Experimental data as given in US20190352413A1 (KYMAB, published 2019).

B1: Ky3 (15F11) (antibody, V domains shown)
VH: EVQLVESGGGLVQPGGSLRLSCAASGFTFGRYDMNWVRQTTGKGLEWVSAIGTAGDTYYPGSVKGRFTISRENAKNSLYLQMNSLRPGDTAVYYCARARPYYYDSGSYYHAPFDYWGQGTLVTVSS
VL: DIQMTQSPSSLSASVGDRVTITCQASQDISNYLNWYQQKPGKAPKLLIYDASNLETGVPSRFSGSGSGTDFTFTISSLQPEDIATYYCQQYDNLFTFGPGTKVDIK
notes: Campaign KM058; In SPR and HTRF it was tested as hybridoma material (human variable regions, mouse constant regions; captured on anti-mouse IgG)
B2: Ky1 (6D07) (antibody, V domains shown)
VH: QVQLVQSGAEVKKPGASVKVSCKASGYTFTSYGISWVRQAPGQGLEWMGWISAYNGNTNYKQKLQGRVTMTTDTSTSTAYMELRSLRSDDTAVYYCARGGSGRYYPWGQGTLVTVSS
VL: DIQMTQSPSSLSASVGDRVTITCRASQGIRNDLGWYQQIPGKAPKRLIYDASSLQSGVPSRFSGSGSGTEFTLTISSLQPEDFATYYCLQHNSYPFTFGPGTKVDIK
notes: Campaign KM059; In SPR and HTRF it was tested as hybridoma material (human variable regions, mouse constant regions; captured on anti-mouse IgG)
B3: Ky4 (16G05) (antibody, V domains shown)
VH: EVQLVESGGGLVQPGRSLRLSCAVSGFTFDDYAMHWVRQPPGKGLEWVSGISWNSGSIDYADSVKGRFTISRDNAKNSLYLQMNSLRAEDTALYYCAKDYYYDSSAYVLFDYWGQGTLVTVSS
VL: DIQMTQSPSSLSASVGDRVIITCRASQSISSYLNWYQQKPGKAPELLIYGASSLQSGVPSRFSGSGSGTDFTLTISSLQPEDFATYYCQQSFSTPLTFGGGTKVEIK
notes: as for B1
B4: Ky5 (15H06) (antibody, V domains shown)
VH: not shown
VL: AIQMTQSPSSVSASVGDRVTITCRASQGISSWLAWYQQKPGKAPKLLIYAASSLHSGVPSRFSGSGSETDFTLTISSLHPEDFATYYCQQSNSFPLTFGGGTKVEIK
notes: as for B1
B5: Ky2 (8C10) (antibody, V domains shown)
VH: EVQLVESGGGLVQPGRSLRLSCAASGFTFDDYAMHWVRQGPGKGLEWVSSISWNSGRIDYADSVKGRFTISRDNAKNSLYLQMNRLRAEDTALYYCAKDGFYDILTGSFFDYWGQGILVTVSS
VL: DIQMTQSPSSLSASVGDRVTITCRASQSISSYLNWYHQEPGKAPNLLIYGASSLQSGVPSRFSGSGSGTDFTLTISSLQPEDFATYYCQQSYSAPPEWTFGQGTKVEIK
notes: as for B2

Legend:
Human OPG-Fc [1] = target: Human OPG-Fc (human); assay: cell-based or functional assay
Cyno OPG-Fc [2] = target: T1, Cyno OPG-Fc (cynomolgus); assay: SPR (ProteOn XPR36); CNROR = cannot resolve off rate, no KD given
T1 construct: The entry begins with a signal peptide ('usually cleaved upon expression'); also called cyno OPG (in-house)

Rat OPG-Fc [3] = target: T2, Rat OPG-Fc (rat); assay: SPR (ProteOn XPR36), antibody captured on anti-mouse IgG, OPG-Fc as analyte, 25 C, 1:1 model
T2 construct: The entry begins with a signal peptide ('usually cleaved upon expression'); also called rat OPG (in-house)
Procedure: (§1) Affinity of secreted antibodies was assessed by testing hybridoma supernatants by Label-free surface plasmon resonance (SPR). This analysis was carried out on the ProteOn XPR36 (BioRad) array SPR machine. An anti-mouse IgG capture surface was created on a GLC biosensor chip using amine coupling of an anti-mouse IgG from GE Healthcare. Test antibodies were captured on this surface and human, rat and cyno OPG (in-house) was used as the analyte at 256 nM, 64 nM, 16 nM, 4 nM and 1 nM for Ky3 (15F11), Ky4 (16G05), 5A06, 25F06, 15B08 and 10B07 and at a single concentration of 100 nM for Ky1 (6D07) and Ky2 (8C10). The assay was carried out at 25° C. using HBS-EP (Teknova H8022). Buffer alone was used to reference the binding sensorgrams. The data was analysed using the 1:1 model inherent to the ProteOn XPR36 analysis software.

Rat OPG-Fc [4] = target: T2, Rat OPG-Fc; assay: SPR (ProteOn XPR36), antibody captured on anti-mouse IgG, OPG-Fc as analyte, 25 C, 1:1 model; apparent affinity
Human OPG-Fc [5] = target: T3, Human OPG-Fc (human); assay: HTRF competition, purified antibody titrated from 120 nM against 4 nM OPG-Fc and 16 nM TRAIL-Flag; inhibition of TRAIL binding
T3 construct: also called hOPG-Fc; human OPG (in-house)

Human OPG-Fc [6] = target: T3, Human OPG-Fc; assay: HTRF competition, purified antibody titrated from 120 nM against 20 nM OPG and 55.6 nM RANKL-647; remaining specific binding of RANKL
Human OPG-Fc [7] = target: T3, Human OPG-Fc; assay: SPR (ProteOn XPR36), antibody captured on anti-mouse IgG, OPG-Fc as analyte, 25 C, 1:1 model
Procedure: as §1

Cyno OPG-Fc [8] = target: T1, Cyno OPG-Fc; assay: as above
Procedure: as §1

Human OPG-Fc [9] = target: T3, Human OPG-Fc; assay: SPR (ProteOn XPR36), antibody captured on anti-mouse IgG, OPG-Fc as analyte, 25 C, 1:1 model; apparent affinity
Cyno OPG-Fc [10] = target: T1, Cyno OPG-Fc; assay: as above
Human OPG-Fc [11] = target: T3, Human OPG-Fc; assay: HTRF competition, purified antibody titrated from 120 nM against 4 nM OPG-Fc and 16 nM TRAIL-Flag; remaining specific binding of TRAIL
Cyno OPG-Fc [12] = target: T1, Cyno OPG-Fc; assay: SPR (ProteOn XPR36), antibody captured on anti-mouse IgG, OPG-Fc as analyte; CNROR = cannot resolve off rate, no KD given

T1 sequence (chain, as listed by the source limits assumed): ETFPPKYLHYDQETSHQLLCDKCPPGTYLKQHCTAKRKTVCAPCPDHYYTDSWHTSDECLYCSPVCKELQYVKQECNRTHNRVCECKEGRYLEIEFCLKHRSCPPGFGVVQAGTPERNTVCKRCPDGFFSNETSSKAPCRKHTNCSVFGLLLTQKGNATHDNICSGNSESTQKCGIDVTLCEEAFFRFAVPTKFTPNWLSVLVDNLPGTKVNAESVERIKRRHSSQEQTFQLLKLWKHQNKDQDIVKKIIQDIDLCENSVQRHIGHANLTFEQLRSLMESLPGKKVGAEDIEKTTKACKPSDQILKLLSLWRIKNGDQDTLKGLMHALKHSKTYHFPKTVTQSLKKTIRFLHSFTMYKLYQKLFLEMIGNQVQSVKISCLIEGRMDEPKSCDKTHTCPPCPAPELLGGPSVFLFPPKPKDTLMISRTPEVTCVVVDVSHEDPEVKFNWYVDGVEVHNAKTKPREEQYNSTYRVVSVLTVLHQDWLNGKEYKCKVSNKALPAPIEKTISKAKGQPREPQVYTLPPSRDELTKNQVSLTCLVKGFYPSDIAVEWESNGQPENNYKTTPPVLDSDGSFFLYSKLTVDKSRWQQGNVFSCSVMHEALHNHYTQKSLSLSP
T3 sequence (chain, as listed by the source limits assumed): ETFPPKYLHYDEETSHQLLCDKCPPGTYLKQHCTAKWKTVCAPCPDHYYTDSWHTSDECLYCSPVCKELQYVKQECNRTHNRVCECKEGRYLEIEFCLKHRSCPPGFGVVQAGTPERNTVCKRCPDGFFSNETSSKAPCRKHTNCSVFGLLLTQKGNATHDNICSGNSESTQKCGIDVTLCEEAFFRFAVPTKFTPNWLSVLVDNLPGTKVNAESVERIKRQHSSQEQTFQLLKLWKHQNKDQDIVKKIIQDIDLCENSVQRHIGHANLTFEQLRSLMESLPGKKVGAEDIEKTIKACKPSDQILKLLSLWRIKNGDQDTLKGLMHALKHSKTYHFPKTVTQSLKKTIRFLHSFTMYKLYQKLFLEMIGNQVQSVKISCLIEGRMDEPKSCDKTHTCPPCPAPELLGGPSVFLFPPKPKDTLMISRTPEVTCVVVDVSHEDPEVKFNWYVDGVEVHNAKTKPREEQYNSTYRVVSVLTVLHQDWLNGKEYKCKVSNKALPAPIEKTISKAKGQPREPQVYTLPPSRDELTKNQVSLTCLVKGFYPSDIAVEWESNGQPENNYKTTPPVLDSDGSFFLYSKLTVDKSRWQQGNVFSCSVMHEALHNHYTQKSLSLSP
T2 sequence (chain, as listed by the source limits assumed): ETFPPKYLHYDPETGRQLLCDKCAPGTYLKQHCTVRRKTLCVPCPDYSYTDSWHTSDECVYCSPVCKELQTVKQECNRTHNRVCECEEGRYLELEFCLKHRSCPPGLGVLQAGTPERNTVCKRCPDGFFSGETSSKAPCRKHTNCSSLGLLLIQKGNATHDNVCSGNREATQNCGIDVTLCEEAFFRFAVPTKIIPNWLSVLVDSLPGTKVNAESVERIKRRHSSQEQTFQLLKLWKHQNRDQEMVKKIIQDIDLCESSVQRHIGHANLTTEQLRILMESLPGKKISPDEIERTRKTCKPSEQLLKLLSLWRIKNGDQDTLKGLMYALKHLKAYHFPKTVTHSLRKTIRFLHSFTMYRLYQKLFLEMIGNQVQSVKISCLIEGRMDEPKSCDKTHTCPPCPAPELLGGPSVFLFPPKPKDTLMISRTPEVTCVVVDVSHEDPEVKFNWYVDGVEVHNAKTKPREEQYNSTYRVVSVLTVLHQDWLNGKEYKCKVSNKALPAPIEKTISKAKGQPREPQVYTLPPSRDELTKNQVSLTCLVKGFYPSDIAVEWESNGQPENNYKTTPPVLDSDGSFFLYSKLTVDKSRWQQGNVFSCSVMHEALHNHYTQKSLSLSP

| Binder | EC50 (read off the curve) (Human OPG-Fc [1]) | binding result (Cyno OPG-Fc [2]) | Kd (Rat OPG-Fc [3]) | Kd (Rat OPG-Fc [4]) | IC50 (Human OPG-Fc [5]) | % Max Specific binding (Human OPG-Fc [6]) | Kd (Human OPG-Fc [7]) | Kd (Cyno OPG-Fc [8]) | Kd (Human OPG-Fc [9]) | Kd (Cyno OPG-Fc [10]) | % Max Specific binding (Human OPG-Fc [11]) | binding result (Cyno OPG-Fc [12]) |
| --- | --- | --- | --- | --- | --- | --- | --- | --- | --- | --- | --- | --- |
| B1 | ~10 nM | binds | 0.12 nM | 0.12 nM | 1.4 nM | 27.1% | – | – | – | – | – | – |
| B2 | – | – | 1.35 nM | 1.35 nM | – | – | 0.17 nM | 14.8 nM | 0.17 nM | 14.8 nM | 4.8% | – |
| B3 | – | – | 1.3 nM | 1.3 nM | – | 65.1% | 0.18 nM | 0.166 nM | 0.18 nM | 0.17 nM | 50.7% | – |
| B4 | – | – | 0.36 nM | 0.36 nM | – | 86.6% | 0.18 nM | – | 0.18 nM | – | 55.8% | binds |
| B5 | – | binds | 7.39 nM | 7.39 nM | – | – | 0.1 nM | – | 0.1 nM | – | 20.1% | – |
